Data reported in patent US20250197502A1 (EXELIXIS, published 2025).

Assays:
[1] = molecular target: T1, Human CD47, soluble His-tagged extracellular domain (AcroBiosystems Cat# CD7-H82E9) (human, UniProt Q08722 19-139); assay: phage display selection and phage ELISA on biotinylated human CD47 extracellular domain
T1 construct: Bought reagent; also called biotinylated human CD47 His-Avitag; not shown: His tag / His-Avitag of the bought reagent

[2] = molecular target: T2, Human PD-L1, soluble His-tagged (AcroBiosystems Cat# PD1-H82E5) (human, UniProt Q9NZQ7 19-238); assay: phage display selection and phage ELISA on biotinylated human PD-L1 extracellular domain, then affinity maturation
T2 construct: The Carterra reagent PD1-H82E5 is only called a soluble, His-tagged antigen; The Biacore reagent is not specified; also called PD-L1/B7-H1; not shown: His tag of the bought reagent

[3] = molecular target: T3, Human CD47 on the cell surface (tumor cell lines; human red blood cells) (human, UniProt Q08722 19-323); assay: cell-based or functional assay
[4] = molecular target: T4, Human PD-L1 on the cell surface (tumor cell lines) (human, UniProt Q9NZQ7 19-290); assay: cell-based or functional assay
[5] = molecular target: T3, Human CD47 on the cell surface (tumor …); assay: cell-based or functional assay; remark: listed apart in the source
[6] = molecular target: T4, Human PD-L1 on the cell surface (tumor …); assay: cell-based or functional assay; remark: listed apart in the source
[7] = molecular target: T5, CD47 and PD-L1 co-expressed on the surface of tumor cells (PDL1-MDA-MB-231, NCI-H292, HT-1080) (human, UniProt Q08722 19-323; Q9NZQ7 19-290); assay: cell-based or functional assay
[8] = molecular target: T1, Human CD47, soluble His-tagged …; assay: Biacore (SPR); format not described
[9] = molecular target: T6, Cynomolgus CD47, soluble His-tagged (AcroBiosystems Cat# CD7-C52H1) (cynomolgus, UniProt A0A2K5X523 19-139); assay: Biacore (SPR); format not described
T6 construct: Soluble antigen; also called Cyno CD47; cyno-CD47

[10] = molecular target: T2, Human PD-L1, soluble His-tagged …; assay: Biacore (SPR); format not described
[11] = molecular target: T7, Cynomolgus PD-L1, soluble His-tagged (AcroBiosystems Cat# PD1-C52H4) (cynomolgus, UniProt G7PSE7 19-239); assay: Biacore (SPR); format not described
T7 construct: Soluble antigen; also called Cyno PD-L1; cyno-PD-L1

[12] = molecular target: T5, CD47 and PD-L1 co-expressed on the …; assay: flow cytometry (MFI) on HT-1080 cells endogenously expressing CD47 and PD-L1
[13] = molecular target: T5, CD47 and PD-L1 co-expressed on the …; assay: flow cytometry (MFI) on NCI-H292 cells endogenously expressing CD47 and PD-L1
[14] = molecular target: T1, Human CD47, soluble His-tagged …; assay: Carterra biosensor kinetics; bsAb1 coupled to HC30M chip, soluble His-tagged antigen 1.2-900 nM, global fit
Experimental: (§1) To obtain accurate kinetic constants, the bispecific antibody was prepared at concentrations ranging from 1 to 10 μg/mL in 10 mM NaOAc (pH 4.25 or pH 4.5), and the coupling reaction was performed in running buffer (25 mM MES, pH 5.5) using multiple chip locations for each concentration. In the next association step, the binding interaction of antigen to the coupled antibody was measured. In general, each binding event consisted of a one minute baseline interval followed by a 5 minute antigen injection and a 15 minute dissociation with HBSTE buffer (10 mM HEPES, 150 mM NaCl, 3 mM EDTA, 0.01% Tween-20, pH 7.4) as running buffer. […] Antigens for binding studies were then prepared by reconstituting according to manufacturer recommendation. To obtain accurate kinetic constants, the reconstituted antigens were subsequently diluted into HBSTE buffer to final concentrations ranging from 1.2 nM to 900 nM. Injections of the antigens at each concentration were performed in series. In the next dissociation step, a regeneration process consisting of three times of injection for 25 seconds with 0.1 M glycine (pH 2.8), 1 M NaCl was performed between each antigen binding event, by which the bound antigen on the surface of the chip was allowed to dissociate. Carterra Kinetics analysis package was used to calculate rate constants (kₐ, kd) and corresponding equilibrium dissociation constants (Kd). Binding data were first recovered by double-referencing to subtract the closest reference cell and blank injection.

[15] = molecular target: T6, Cynomolgus CD47, soluble His-tagged …; assay: as above
Experimental: as §1

[16] = molecular target: T2, Human PD-L1, soluble His-tagged …; assay: as above
Experimental: as §1

[17] = molecular target: T7, Cynomolgus PD-L1, soluble His-tagged …; assay: as above
Experimental: as §1

[18] = molecular target: T5, CD47 and PD-L1 co-expressed on the …; assay: flow cytometry, MFI on NCI-H292 tumor cells mixed with human RBC (tumor cells labelled with CellTrace Violet)
[19] = molecular target: T5, CD47 and PD-L1 co-expressed on the …; assay: flow cytometry (MFI) on PDL1-MDA-MB-231 cells co-expressing CD47 and PD-L1; PDL1-MDA-MB-231 cells carrying both CD47 (~500,000) and PD-L1 (~1,500,000)

T1 sequence (Q08722 19-139): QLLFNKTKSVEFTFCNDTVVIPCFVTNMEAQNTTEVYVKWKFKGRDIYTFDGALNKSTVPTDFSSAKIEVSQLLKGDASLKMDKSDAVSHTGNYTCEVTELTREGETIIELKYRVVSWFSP
T2 sequence (Q9NZQ7 19-238): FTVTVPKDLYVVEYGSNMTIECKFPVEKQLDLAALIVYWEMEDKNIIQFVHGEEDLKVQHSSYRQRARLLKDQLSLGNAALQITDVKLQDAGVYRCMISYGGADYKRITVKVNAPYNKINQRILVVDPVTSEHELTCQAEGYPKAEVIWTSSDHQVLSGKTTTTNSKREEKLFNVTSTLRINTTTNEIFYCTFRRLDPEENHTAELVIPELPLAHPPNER
T7 sequence (G7PSE7 entry or part of it): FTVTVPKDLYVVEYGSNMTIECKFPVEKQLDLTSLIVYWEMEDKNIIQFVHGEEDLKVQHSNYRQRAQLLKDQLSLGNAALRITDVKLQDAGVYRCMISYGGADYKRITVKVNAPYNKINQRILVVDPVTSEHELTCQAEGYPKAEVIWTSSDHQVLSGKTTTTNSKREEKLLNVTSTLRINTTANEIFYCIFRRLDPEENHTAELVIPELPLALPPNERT
T5 sequence (Q08722 19-323 limits assumed, chain 1 of 2): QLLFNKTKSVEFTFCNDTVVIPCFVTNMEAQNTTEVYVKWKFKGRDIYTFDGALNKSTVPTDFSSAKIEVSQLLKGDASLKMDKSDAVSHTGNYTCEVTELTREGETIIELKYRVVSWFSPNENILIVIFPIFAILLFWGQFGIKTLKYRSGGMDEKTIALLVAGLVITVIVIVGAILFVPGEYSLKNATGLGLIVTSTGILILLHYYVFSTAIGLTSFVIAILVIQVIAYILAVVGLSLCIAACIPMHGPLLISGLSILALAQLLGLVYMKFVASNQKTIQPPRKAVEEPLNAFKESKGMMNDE
T5 sequence (Q9NZQ7 19-290 limits assumed, chain 2 of 2): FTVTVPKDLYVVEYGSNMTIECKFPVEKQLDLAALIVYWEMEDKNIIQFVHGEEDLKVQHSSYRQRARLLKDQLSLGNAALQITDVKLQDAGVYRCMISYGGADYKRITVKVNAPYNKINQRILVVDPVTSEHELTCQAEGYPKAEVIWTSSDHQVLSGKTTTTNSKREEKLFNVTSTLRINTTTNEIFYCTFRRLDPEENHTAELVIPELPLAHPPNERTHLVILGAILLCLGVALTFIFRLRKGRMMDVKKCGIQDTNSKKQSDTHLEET
T4 sequence (Q9NZQ7 19-290 limits assumed): as the sequence (Q9NZQ7 19-290 limits assumed, chain 2 of 2) above
T3 sequence (Q08722 19-323 limits assumed): as the sequence (Q08722 19-323 limits assumed, chain 1 of 2) above

B1: Antibody mAb-C (selected CD47 binding antibody) (antibody, IgG1, V domains shown)
VH: EVQLVESGGGLVQPGGSLRLSCAASGFTFSWYYIHWVRQAPGKGLEWVAYIDSSSGYTEYADSVKGRFTISADTSKNTAYLQMNSLRAEDTAVYYCARGGYLGMDYWGQGTLVTVSS
VL: DIQMTQSPSSLSASVGDRVTITCRASQSVSSAVAWYQQKPGKAPKLLIYSASSLYSGVPSRFSGSRSGTDFTLTISSLQPEDFATYYCQQSRSRPRTFGQGTKVEIK
notes: Selected as a Fab on phage
B1: binds [1].

B2: Antibody mAb-P (selected and then affinity matured PD-L1 binding antibody) (antibody, human IgG1, V domains shown)
VH: EVQLVESGGGLVQPGGSLRLSCAASGFTFRSYYIHWVRQAPGKGLEWVATISSYGVFTYYADSVKGRFTISADTSKNTAYLQMNSLRAEDTAVYYCARGTTLTPVLDYWGQGTLVTVSS
VL: DIQMTQSPSSLSASVGDRVTITCRASQSVSSAVAWYQQKPGKAPKLLIYSASSLSSGVPSRFSGSRSGTDFTLTISSLQPEDFATYYCQQFGAEPITFGQGTKVEIK
B2: binds [2].

B3: bsAb1 (mAb-C x mAb-P in an exemplary format; bispecific anti-CD47 x anti-PD-L1 antibody of four polypeptide chains) (bispecific antibody)
chain 1: not shown
chain 2: EVQLVESGGGLVQPGGSLRLSCAASGFTFSWYYIHWVRQAPGKGLEWVAYIDSSSGYTEYADSVKGRFTISADTSKNTAYLQMNSLRAEDTAVYYCARGGYLGMDYWGQGTLVTVSSAQPREPQVYTLPPCRDWLTKNQVSLTCLVKGFYPSDIAVEWESNGQPENNYKTTPPVLDSDGSFFLYSKLTVDKSRWQQGNVFSCSVMHEALHNHYTQKSLSLSPGK
chain 3: not shown
chain 4: EVQLVESGGGLVQPGGSLRLSCAASGFTFRSYYIHWVRQAPGKGLEWVATISSYGVFTYYADSVKGRFTISADTSKNTAYLQMNSLRAEDTAVYYCARGTTLTPVLDYWGQGTLVTVSSASTKGPSVFPLAPSSKSTSGGTAALGCLVKDYFPEPVTVSWNSGALTSGVHTFPAVLQSSGLYSLSSVVTVPSSSLGTQTYICNVNHKPSNTKVDKKVEPKSC
notes: Chains 1+2 form the CD47 arm (mAb-C), chains 3+4 the PD-L1 arm (mAb-P); also called the selected bispecific antibody
B3 was tested, and the “EC50 of inhibiting CD47/SIRPα signaling in PDL1-MDA-MB-231 cells (PathHunter chemiluminescent signal)” value [3] was 0.076 nM, the “EC50 of inhibiting PD-1/PD-L1 interaction in PDL1-MDA-MB-231 cells (PathHunter chemiluminescent signal)” value [4] was 0.22 nM and the “IC50, CD47/SIRPa block (PathHunter CD47/SIRPα signaling bioassay)” value [5] was 0.8 nM. The “IC50, PD-L1/PD-1 block (PathHunter PD-1/PD-L1 signaling bioassay)” value [6] was 0.5 nM, the “ADCP (phagocytosis of NCI-H292 cells) EC50” value [7] was 0.2 nM and the Kd [8] was 21 nM. It also gave a koff [8] of 0.0141 s⁻¹, a Kd [9] of 25 nM and a koff [9] of 0.0137 s⁻¹. The Kd [10] was 0.05 nM, the koff [10] was 0.000164 s⁻¹ and the Kd [11] was 0.034 nM. The koff [11] was 0.00012 s⁻¹, the EC50 [12] was 0.2 nM and the EC50 [13] was 0.7 nM. It also gave a Kd [14] of 27 nM, a koff [14] of 0.0093 s⁻¹ and a kon [14] of 350000 M⁻¹ s⁻¹. The Kd [15] was 24 nM, the koff [15] was 0.0046 s⁻¹ and the kon [15] was 190000 M⁻¹ s⁻¹. For the same binder, the Kd [16] was 0.15 nM, the koff [16] was 0.00013 s⁻¹ and the kon [16] was 980000 M⁻¹ s⁻¹. The Kd [17] was 0.18 nM, the koff [17] was 0.00015 s⁻¹ and the kon [17] was 890000 M⁻¹ s⁻¹. For the same binder, the “EC50 (read off the curve)” value [18] was roughly 0.7 nM and the EC50 [19] was 0.22 nM.
